Consider 19 variants from PMC11661448.

B1: EFR3A (721 to 791) [human] / TTC7B-FAM126A (1 to 308) [human] (parent)
chain 1: MATKKAGSRLETEIERCRSECQWERIPELVKQLSAKLIANDDMAELLLGESKLEQYLKEHPLRQGASPRGPKPQLTEVRKHLTAALDRGNLKSEFLQESNLIMAKLNYVEGDYKEALNIYARVGLDDLPLTAVPPYRLRVIAEAYATKGLCLEKLPISSSTSNLHVDREQDVITCYEKAGDIALLYLQEIERVILSNIQNRSPKPGPAPHDQELGFFLETGLQRAHVLYFKNGNLTRGVGRFRELLRAVETRTTQNLRMTIARQLAEILLRGMCEQSYWNPLEDPPCQSPLDDPLRKGANTKTYTLTRRARVYSGENIFCPQENTEEALLLLLISESMANRDAVLSRIPEHKSDRLISLQSASVVYDLLTIALGRRGQYEMLSECLERAMKFAFEEFHLWYQFALSLMAAGKSARAVKVLKECIRLKPDDATIPLLAAKLCMGSLHWLEEAEKFAKTVVDVGEKTSEFKAKGYLALGLTYSLQATDASLRGMQEVLQRKALLAFQRAHSLSPTDHQAAFYLALQLAISRQIPEALGYVRQALQLQGDDANSLHLLALLLSAQKHYHDALNIIDMALSEYPENFILLFSKVKLQSLCRGPDEALLTCKHMLQIWKSCYNLTNPSDSGRGSSLLDRTIADRRQLNTITLPDFSDPETGSVHATSVAASRVEQALSEVASSLQSSAPKQGPLHPWMTLAQIWLHAAEVYIGIGKPAEATACTQEAANLFPMSHNVLYMRGQIAELRGSMDEARRWYEEALAISPTHVKSMQRLALILHQLGRYSLAEKILRDAVQVNSTAHEVWNGLGEVLQAQGNDAAATECFLTALELEASSPAVPFTIIPRVL
chain 2: MFTSEKGVVEEWLSEFKTLPETSLPNYATNLKDKSSLVSSLYKVIQEPQSELLEPVCHQLFEFYRSGEEQLLQFTLQFLPELIWCYLAVSASRNVHSSGCIEALLLGVYNLEIVDKQGHTKVLSFTIPSLSKPSVYHEPSSIGSMALTESALSQHGLSKVVYSGPHPQREMLTAQNRFEVLTFLLLCYNAALTYMPSVSLQSLCQICSRICVCGYPRQHVRKYKGISSRIPVSSGFMVQMLTGIYFAFYNGEWDLAQKALDDIIYRAQLELYPEPLLVANAIKASLPHGPMKSNKEGTRCIQVEITPT
chain 3: SNTEEITFEALKKAIDTSGMEEQEKEKRRLVIEKFQKAPFEEIAAQCESKANLLHDRLAQILELTIRPPPS

Variants of B1 are the subject of the first assay. As to the kind of experiment: BLI. The following applies: with TTC7B-FAM126A (1 to 308) [human]; His-EFR3A loaded on the anti-penta-His tip at 200 nM, TTC7B-FAM126A at 500 nM; 25°C; 20 mM HEPES (pH 7.5), 150 mM NaCl; read off a plot.
chain 3 R57E: the response is 1.3 nm.

Take chain 3 L11R: the response worked out at 0.17 nm.

As to chain 3 L11A, the response is 0.01 nm.

For the variant chain 3 F35A, the response was -0.02 nm.

For chain 3 A14R, the response turned out to be 0.23 nm.

chain 3 I43A: the response is 0.45 nm.

As to chain 3 K12E, the response was found to be 0.27 nm.

As to chain 3 F8A, the response came to 0.47 nm.

For the variant chain 3 I61A, the response is 1.5 nm.

For chain 3 F40A, the response was determined as 0.84 nm.

Turning to chain 3 K50E, the response is 0.82 nm.

The same assay, now with this note: with EFR3A (721 to 791) [human]; His-EFR3A loaded on the anti-penta-His tip at 200 nM, TTC7B-FAM126A at 500 nM; 25°C; 20 mM HEPES (pH 7.5), 150 mM NaCl; read off a plot.
chain 2 F61A: the response was determined as 0.37 nm.

With chain 2 A103R, the response was 0.08 nm.

Turning to chain 2 L106F, the response turned out to be 1.1 nm.

With chain 1 A702R, the response was -0.07 nm.

With chain 1 L610A, the response turned out to be 0.85 nm.

As to chain 2 H58E, the response was found to be 1.6 nm.

For the variant chain 1 R539E, the response worked out at 1.2 nm.

For the variant chain 1 W699A, the response stood at 1.4 nm.
